Test results taken from patent publication US20240093191A1, “COMPOSITIONS AND METHODS FOR TREATING DISEASE ASSOCIATED WITH DUX4 OVEREXPRESSION” (RESEARCH INSTITUTE AT NATIONWIDE CHILDREN'S HOSPITAL, priority 2021, published 2024).

B1: U6.mir-675H: mir-675 construct with modified flanking sequences and UA dinucleotide (nucleic acid)
DNA: TCTAGAGATCCGACGCCGCCATCTCTAGGCCCGCGCCGGCCCCCTCGCACAGACTTGTGGGAGAAGCTCGGCTACTCCCCTGCCCCGGTTAATTTGCATATAATATTTCCTAGTAACTATAGAGGCTTAATGTGCGATAAAAGACAGATAATCTGTTCTTTTTAATACTAGCTACATTTTACATGATAGGCTTGGATTTCTATAAGAGATACAAATACTAAATTATTATTTTAAAAAACAGCACAAAAGGAAACTCACCCTAACTGTAAAGTAATTGTGTGTTTTGAGACTATAAATATCCCTTGGAGAAAAGCCTTGTTTGACCGTTTAAACCCCAGGGTCTGGTGCGGAGAGGGCCCACAGTGGACTTGGTGACGCTGTATGCCCTCACCGCTCAGCCCCTGGGGCGCACGCCAGTTTTTT
B2: U6.mir-675-2.3.1: mir-675 construct with modified 5' and 3' flanking sequences (nucleic acid)
DNA: TCTAGAGATCCGACGCCGCCATCTCTAGGCCCGCGCCGGCCCCCTCGCACAGACTTGTGGGAGAAGCTCGGCTACTCCCCTGCCCCGGTTAATTTGCATATAATATTTCCTAGTAACTATAGAGGCTTAATGTGCGATAAAAGACAGATAATCTGTTCTTTTTAATACTAGCTACATTTTACATGATAGGCTTGGATTTCTATAAGAGATACAAATACTAAATTATTATTTTAAAAAACAGCACAAAAGGAAACTCACCCTAACTGTAAAGTAATTGTGTGTTTTGAGACTATAAATATCCCTTGGAGAAAAGCCTTGTTTGAATCACACTGCCCCAGGGTCTGGTGCGGAGAGGGCCCACAGTGGACTTGGTGACGCTGTATGCCCTCACCGCTCAGCCCCTGGGGATAACTCCTAATCACACTTTTTT
B3: U6.mir-675NF: U6 mir-675 construct with no flanking sequences (nucleic acid)
DNA: TCTAGAGATCCGACGCCGCCATCTCTAGGCCCGCGCCGGCCCCCTCGCACAGACTTGTGGGAGAAGCTCGGCTACTCCCCTGCCCCGGTTAATTTGCATATAATATTTCCTAGTAACTATAGAGGCTTAATGTGCGATAAAAGACAGATAATCTGTTCTTTTTAATACTAGCTACATTTTACATGATAGGCTTGGATTTCTATAAGAGATACAAATACTAAATTATTATTTTAAAAAACAGCACAAAAGGAAACTCACCCTAACTGTAAAGTAATTGTGTGTTTTGAGACTATAAATATCCCTTGGAGAAAAGCCTTGTTTGCCCCAGGGTCTGGTGCGGAGAGGGCCCACAGTGGACTTGGTGACGCTGTATGCCCTCACCGCTCAGCCCCTGGGGTTTTTT

Assays:
Type in all cases: cell-based, human
DUX4 protein = assay: Western blot of V5-tagged DUX4 protein in co-transfected HEK293 cells; details: CMV.DUX4-FL/CMV.eGFP, HEK293, molar ratio 1 to 3, eGFP normalizer, relative to U6-milacZ, N = 3-8
pri-mir-675 = assay: TaqMan QRT-PCR of pri-mir-675 from transfected constructs in HEK293 cells; details: 24 h post-transfection
Description: (§1) RNA Extraction. RNA from HEK293 cells was extracted for Northern blot assay and QPCR. The miRVANA miRNA isolation kit (ThermoFisher Scientific) was used according to manufacturer's directions to extract total RNA encompassing small RNAs, such as miRNAs. To extract RNA from C57BL/6 skeletal muscles, cryopreserved muscles were crushed under suboptimal temperatures using liquid nitrogen and using mortar and pestle. Crushed muscles were then lysed using […] of miRVANA miRNA isolation kit lysis buffer, a TissueLyser and 1.0 mm zirconia beads (Biospec). Muscle was homogenized at 30 Hz for 30 sec with 10 sec rest. This was repeated 3 times.
(§2) TaqMan Gene Expression Assay. QRT-PCR was carried out to quantify the expression of pri-mir-675, mir-675-5p and mi405 using TaqMan probes (ThermoFisher Scientific). Experiments were started by eliminating genomic DNA from the RNA preparations, and then cDNA was generated using the High-Capacity cDNA Reverse Transcription Kit (Applied Biosystems) following manufacturer's instructions. Within the same cDNA reaction, 1×RT random hexamer primers were used to generate the cDNA for RPL13A, used as a reference gene, and for pri-mir-675. To generate the cDNA for mir-675, the RT mir-675 reverse primer provided by ThermoFisher Scientific was used. For mi405, the mi405 qPCR protocol was done as it was previously described [Wallace et al., Mol. Ther. Methods Clin. Dev. 8: 121-30 (2018)]. To quantify mir-675 and mi405 levels, RNA was extracted using the total RNA protocol for the mirVana miRNA Isolation Kit (Ambion) from HEK293 cells. cDNA was generated using the High-Capacity cDNA Reverse Transcription Kit (Applied Biosystems) using a mix of random hexamer primers and specific reverse primer for pri-mir-675 and mir-675-5p. For mi405, 200 nM of the stem-loop forming primer (5′-[…]-3′) (SEQ ID NO: 144) was also used for the RT step. A custom TaqMan assay (Applied Biosystems) including 1.5 μM of Forward primer (5′-[…]-3′) (SEQ ID NO: 145), 0.7 μM of Reverse primer (5′-GTGCAGGGTCCGAGGT-3′) (SEQ ID NO: 146), and 0.2 μM of mi405 probe (5′-6FAM-ATACGACGTCCAGGAT-3′) (SEQ ID NO: 147) was then run using the CFX Connect Real Time system apparatus (Bio-Rad). RPL13A (Mm02526700_g1; Applied Biosystems) served as the reference gene. The TaqMan gene expression assay consisted of using the TaqMan Gene Expression Master mix and TaqMan probes purchased from ThermoFisher Scientific. 1× of probe was mixed with 1× of the TaqMan Gene Expression Master mix (ThermoFisher Scientific), and with 20 ng of cDNA. The mir-675- and mi405-specific primers and probes were designed to quantify only the mir-675-5p and mi405 mature sequence (see TaqMan Gene Expression Master mix protocol).

mir-675-5p [1] = assay: ddPCR of all mature mir-675-5p sequences (TaqMan Advanced miRNA cDNA synthesis) in HEK293 cells
Protocol: Digital Droplet PCR (ddPCR). For mir-675 and mi405 constructs, RNA extraction was carried out as described for QPCR above. For cDNA synthesis, the TaqMan advanced cDNA synthesis kit (Thermo Fisher) was used and cDNA was prepared by following manufacturer's instructions. ddPCR was carried out using 1× ddPCR Supermix for probes (No dUTP) (Bio-Rad), 1× commercially available mir-675 advanced TaqMan probe, or a custom made mi405 advanced TaqMan probe (ThermoFisher) and 50 ng of cDNA. For DUX4 cDNA synthesis, the High-Capacity cDNA Reverse Transcription Kit (Applied Biosystems) was used according to manufacturer's instructions. Within the same cDNA reaction, 1×RT random hexamer primers and 25 pmoles of the Oligo(dT) primer were used to generate cDNA for DUX4 and DUX4-responsive biomarkers and for mouse Rpl13A, used as a reference gene. To quantify DUX4, the ddPCR reaction mixture (20 μL) contained 1× ddPCR Evagreen Supermix (Bio-Rad), 1 μM of forward and reverse DUX4 primers (Sharma et al., J Genet Syndr Gene Ther 2016 August; 7(4):303. doi: 10.4172/2157-7412.1000303. Epub 2016 Aug. 8), and 50 ng of cDNA. To quantify Rpl13A and DUX4-responsive biomarkers (Trim36 and Wfdc3), the 1× ddPCR Supermix for probes (No dUTP) and TaqMan specific probes were used for each of the genes. Droplets were generated using the Automatic Droplet generator QX200 AutoDG (Bio-Rad), the reactions were amplified in a C1000 Touch™ Thermal Cycler with 96-Deep Well Reaction Module (Bio-Rad). Cycling conditions were set up following the QX200 ddPCR Evagreen Supermix protocol. All assays are compatible with an annealing temperature of 58° C. Droplets were then read using the QX200 droplet reader (Bio-Rad). Finally, data were analyzed using the QuantaSoft analysis software (Bio-Rad). For quantification, each reaction of 20 μL was estimated to give at least 10,000 acceptable droplets.
In order to quantify the level of all these mature sequences, the TaqMan advanced miRNA cDNA synthesis method that uses universal reverse transcription (RT) chemistry to synthesize cDNA templates that can be quantified using the TaqMan Advanced miRNA probes was used. In this method, most of the processed mature miRNA sequences were quantified.

mir-675-5p [2] = assay: TaqMan QRT-PCR of mature mir-675-5p from transfected constructs in HEK293 cells; details: HEK293, 24 h post-transfection; for mir-675-5p levels compared to U6.mir-675: 23 mer mature mir-675-5p
Description: as §1, §2

mir-675-5p [3] = assay: Small-transcript northern blot of mir-675 processing in HEK293 cells; details: HEK293; anti-mir-675-5p biotinylated probe
Description: Small-Transcript Northern Blots. […] (SEQ ID NO: 148)).

Molecule | Average inhibition efficiency (%) of DUX4 protein levels (DUX4 protein) | Average inhibition efficiency (%) of DUX4 protein levels (DUX4 protein; listed as U6-mir-675H) | pri-mir-675 levels compared to U6.mir-675 (pri-mir-675) | fold change of all mature mir-675-5p sequences compared to U6.mir-675 (mir-675-5p [1]) | mir-675-5p levels compared to U6.mir-675 (mir-675-5p [2]) | ratio of mir-675-5p/pri-mir-675 compared to U6.mir-675 (mir-675-5p [2]) | mature mir-675-5p bands on northern blot (mir-675-5p [3])
B1 | 89±6% | 89 ± 6 (N = 3) % | 256±37% | 201±38% | 774±93% | 303±57% | 
B2 | 58 ± 8 (N = 3) % |  | 274±49% | 187±40% | 241±29% |  | 
B3 | 69 ± 6 (N = 5) % |  | 213±28% | 176±60% |  |  | detectable mir-675 mature sequences
